Test results reported in US20220356229A1 (published 2022).

Tests used:
[1] = biological target: SARS-CoV Spike protein (SARS-CoV, UniProt P59594 14-1190)
[2] = biological target: T1, SARS-CoV full length Spike protein, wild type, expressed on CHO cells (SARS-CoV, UniProt P59594 14-1255); test: flow cytometry, live cell assay on transfected CHO cells
[3] = biological target: SARS-CoV-2 full length Spike protein, wild type, expressed on CHO cells (SARS-CoV-2, UniProt P0DTC2 14-1273)
[4] = biological target: T1, SARS-CoV full length Spike protein, …
[5] = biological target: SARS-CoV-2 full length Spike protein, wild type (SARS-CoV-2, UniProt P0DTC2 14-1208)

B1: anti-coronavirus antibody 546 (antibody, V domains shown)
VH: QVQLVESGGGVVQPGRSLRLSCAASGFTFSSYGMHWVRQAPGKGLEWVAVIWYDGSNKYYADSVKGRFTISRDNSKNTLYLQMNSLRAEDTAVYYCARNCGGDCVAGDGFDYWGQGTLVTVSS
VL: DIQMTQSPSSLSASVGDRVTITCRASQSISSYLNWYQQKPGKAPNLLIYAASSLQSGVPSRFSGSGSGTDFTLTISSLQPEDFATYYCQQSYSALTWTFGQGTKVEIK
[1]
  binding signal (fold over isotype control): 1.18 fold over isotype control

B2: anti-coronavirus antibody 548 (antibody, V domains shown)
VH: QVQLVESGGGVVQPGRSLRLSCAASGFTFSSYAMHWVRQAPGKGLEWVAVISYDGSNKYYADSVKGRFTISRDNSKNTLYLQMNNLRAEDTAVYYCAKSGSGSYLSAFDIWGQGTMVTVSS
VL: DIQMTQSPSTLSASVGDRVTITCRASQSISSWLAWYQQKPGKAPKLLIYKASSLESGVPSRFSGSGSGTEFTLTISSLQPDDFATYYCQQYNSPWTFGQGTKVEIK
[1]
  binding signal (fold over isotype control): 18.1 fold over isotype control

B3: anti-coronavirus antibody 556 (antibody, V domains shown)
VH: QVQLVESGGGVVQPGRSLRLSCAASGFTFSSYAMHWVRQAPGKGLEWVAVISYDGSDKYYADSVKGRVTISRDNSKNTLYLQMNSLRVEDTAVFYCAKDDCSGGVCFPDYWGQGTLVTVSS
VL: QSALTQPASVSGSPGQSITISCTGTSSDVGGYNYVSWYQQHPGKAPKLMIYEVSIRPSGVSNRFSGSKSGNTASLTISGLQAEDEAAYYCSSYTSSSTLVFGGGTKLTVL
[1]
  binding signal (fold over isotype control): 1.09 fold over isotype control

B4: anti-coronavirus antibody 560 (antibody, V domains shown)
VH: EVQLVESGGGLVQPGGSLRLSCAASGFTISSNYMSWVRQAPGKGLEWVSVIYSGGSTYYADSVKGRFTISRDNSKNTLYLQMNSLRAEDTAVYYCAREEGEWEKDYYGMDVWGQGTTVTVSS
VL: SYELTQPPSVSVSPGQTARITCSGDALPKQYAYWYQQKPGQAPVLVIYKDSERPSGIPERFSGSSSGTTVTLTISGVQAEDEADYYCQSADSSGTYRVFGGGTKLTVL
[1]
  binding signal (fold over isotype control): 1.14 fold over isotype control

B5: anti-coronavirus antibody 563 (antibody, V domains shown)
VH: QVQLVESGGGVVQPGRSLRLSCAASGFTFSSYAMHWVRQAPGKGLEWVAVISDDGSNKYYADSVKGRFTISRDNSKNTLYLQMNSLRAEDTAVYYCARDIVATIRRLFDYWGQGTLVTVSS
VL: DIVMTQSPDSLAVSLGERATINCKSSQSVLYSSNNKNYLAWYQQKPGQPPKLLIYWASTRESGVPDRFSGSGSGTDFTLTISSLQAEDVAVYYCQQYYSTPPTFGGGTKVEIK
[1]
  binding signal (fold over isotype control): 35.4 fold over isotype control

B6: anti-coronavirus antibody 566 (antibody, V domains shown)
VH: QVQLVQSGAEVKKPGASVKVSCKASGYTFTSYAMHWVRQAPGQRLEWMGWINAGNGNTKYSQKFQGRVTITRDTSASTAYMELSSLRSEDTAVYYCARDLGVAVTLHPADFDYWGQGTLVTVSS
VL: QSVLTQPPSVSGAPGQRVTISCTGSSSNIGAGYDVHWYQQLPGTAPKLLIYDNSNRPSGVPDRFSGSKSGTSASLAITGLQAEDEADYYCQSYDSSLSAVVFGGGTKLTVL
[1]
  binding signal (fold over isotype control): 0.97 fold over isotype control

B7: anti-coronavirus antibody 571 (antibody, V domains shown)
VH: EVQLVESGGGLVQPGGSLRLSCAASGFTFSTYWMTWVRQAPGKGLEWVANIKHDGSGKYHVDSVKGRFTISRDNAKNSLYLQMNSLRAEDTAVYYCTRDEGGWYDYWGQGTLVTVSS
VL: QSALTQPASVSGSPGQSITISCTGTSSDVGSYNPVSWYQQHPGKAPKVMIYEGSKRPSGVSNRFSGSKSGNTASLTISGLQAEDEADYYCCSYARSSTFVVFGGGTKLTVL
[1]
  binding signal (fold over isotype control): 1.28 fold over isotype control

B8: anti-SARS-CoV-2 antibody 851 (antibody, V domains shown)
VH: QITLKESGPTLVKPTQTLTLTCTFSGFSLSTNGVGMGWIRQPPGKALEWLALIYWDDDQFYSPSLKSRLTITRDTSKNQVVLTMTNMDPVDTATYYCAQAFYESFGFYSWGQGTLVTVSS
VL: NFMLTQPHSVSESPGKTVIISCTRSIGSIASNYVQWYQQRPGSAPTIVVFEDNERPSGVPDRFSGSIDRSSNSASLTISGLKTEDEADYYCQSYDGSSELVFGGGTKLTVLG
[2]
  binding result: no binding
[3]
  median fluorescence intensity, fold over isotype control: 60 fold over isotype
[4]
  median fluorescence intensity, fold over isotype control: 0.62 fold over isotype

B9: anti-SARS-CoV-2 antibody 894 (antibody, V domains shown)
VH: QVQLVQSGAEVKKPGASVKVSCKVSGYTLPELSIHWVRQAPGKGLEWMGGFDPENAETIYTQKFQGRLTMTEDTSTDTAYMELSSLRSEDTAMYYCATSFVLMPAALGDYSYYYGMDVWGQGTTVTVSS
VL: not shown
[2]
  binding result: no binding
[3]
  median fluorescence intensity, fold over isotype control: 77.7 fold over isotype
[4]
  median fluorescence intensity, fold over isotype control: 0.67 fold over isotype

B10: anti-SARS-CoV-2 antibody 896 (antibody, V domains shown)
VH: EVQLVESGGGVVQPGGSLRLSCAASGFTFDDYAMHWVRQVPGKGLEWVSLISGDGGSTYYADSVKGRFTISRDNSKNSLYVQMNSLRTEDTALYYCVKDRGGSGWDLNHYYYGMDVWGQGTTVTVSS
VL: DIQLTQSPSFLSASVGDRVTVTCRASQGISSYLAWYQQKPGKAPKLLIYAAYTLQSGVPSRFSGSGSETEFTLTISSLQPEDFATYYCQQVKSYPLTFGGGTKVEIKR
[2]
  binding result: no binding
[3]
  median fluorescence intensity, fold over isotype control: 70.3 fold over isotype
[4]
  median fluorescence intensity, fold over isotype control: 0.69 fold over isotype

B11: anti-SARS-CoV-2 antibody 1015 (antibody, V domains shown)
VH: EVQLVESGGGLVQPGGSLRLSCAASGFTFSSYWMHWVRQAPGKGLVWVSHINSDGSSTSYADSVKGRFTISRDNAKNTLYLQMNSLRAEDTAVYYCARGLRYFDLDVWGQGTTVTVSS
VL: QSVLTQPPSVSEAPRQRVTISCSGSSSNIGNNAVNWYQQLPGKAPKLLIFYDDLLPSGVSDRFSGSKSGTSASLAISGLQSEDEADYYCAAWDDSLNGGVFGGGTKLTVLG
[2]
  binding result: no binding
[3]
  median fluorescence intensity, fold over isotype control: 30.5 fold over isotype
[4]
  median fluorescence intensity, fold over isotype control: 0.89 fold over isotype

B12: anti-SARS-CoV-2 antibody 1075 (antibody, V domains shown)
VH: QVQLVQSGAEVKKPGASVKVSCKVSGYTLIELSMHWVRQAPGKGLEWMGGFDPEDGETIYAQKFQGRVTMTEDTSTDTAYMELSSLRSEDTAVYYCATEWAYYGSGSYLGYWGQGTLVTVSS
VL: EIVMTQSPATLSVSPGERATLSCRASQSVSSNLAWFQQKPGQAPRLLIYGASTRVTVIPARFSGSGSGTEFTLTISSLQSEDFAVYYCQQYNNWPRTFGQGTKVEIKR
[2]
  binding result: no binding
[3]
  median fluorescence intensity, fold over isotype control: 78.7 fold over isotype
[4]
  median fluorescence intensity, fold over isotype control: 0.86 fold over isotype

B13: anti-SARS-CoV-2 antibody 1404 (antibody, V domains shown)
VH: QITLKESGPTLVKPTQTLTLTCTFSGFSLSISGVGVGWLRQPPGKALEWLALIYWDDDKRYSPSLKSRLTISKDTSKNQVVLKMTNIDPVDTATYYCAHHSISTIFDHWGQGTLVTVSS
VL: QSALTQPASVSGSPGQSITISCTATSSDVGDYNYVSWYQQHPGKAPKLMIFEVSDRPSGISNRFSGSKSGNTASLTISGLQAEDEADYYCSSYTTSSAVFGGGTKLTVLG
[2]
  binding result: no binding
[3]
  median fluorescence intensity, fold over isotype control: 71.2 fold over isotype
[4]
  median fluorescence intensity, fold over isotype control: 0.86 fold over isotype

B14: anti-SARS-CoV-2 antibody 1444 (antibody, V domains shown)
VH: QVQLVQSGAEVKKPGASVKVSCKASGYTFTAYYMHWVRQAPGQGLEWMGWINPNSDDTNYAQKFQGRVTMTRDTSISTAYMELSRLRSDDTAVYYCAREEGVFTIGDRYFDLWGRGTLVSVSS
VL: QTVVTQEPSFSVSPGGTVTLTCGLSSGSVSTSYYPSWYQQTPGQAPRTLIYNTNTRSSGVPDRFSGSILGNKAALTITGAQADDESDYYCVLYMGSGIWVFGGGTKLTVLG
[2]
  binding result: no binding
[3]
  median fluorescence intensity, fold over isotype control: 48.7 fold over isotype
[4]
  median fluorescence intensity, fold over isotype control: 0.77 fold over isotype

B15: anti-SARS-CoV-2 antibody 1495 (antibody, V domains shown)
VH: QVQLVESGGGVVQPGRSLRLSCTASGFTFSSYAMHWVRQAPGKGLEWVAVISYDGNNKYYGDSVKGRFTISRDNSKNTLYLQMNSLRAEDTAVYYCAKGADTPHYSGYHFLSVGYYFYGMDVWGQGTTVTVSS
VL: DIQMTQSPSSLSASVGDRVTITCRASQSISYYLNWYQQKPGKAPQLLIYAASSLQSGVPSRFSGSRSGTDFTLTISSLQPEDFATYYCQQSYSTPFTFGPGTKVDIKR
[2]
  binding result: no binding
[3]
  median fluorescence intensity, fold over isotype control: 57.3 fold over isotype
[4]
  median fluorescence intensity, fold over isotype control: 0.72 fold over isotype

B16: anti-SARS-CoV-2 antibody 1538 (antibody, V domains shown)
VH: EVQLLESGGGLVQPGGSLRLSCAASGFTFSSYAMSWVRQAPGKGLEWVSGISDSGGSTYYADYVKGRFTISRDNSKDTLYLQMNSLRAEDTAVYYCAKDRGNEYALTHYYYYAMDVWGQGTTVTVSS
VL: DIQMTQSPSSLSASVGDRVTITCRASQSISSYLNWYQQKPGKAPKLLIYAAYSLQSGVPSRFSGGGSGTDFTLTISSLQPEDFATYFCQQSYSTPITFGQGTRLEIKR
[2]
  binding result: no binding
[3]
  median fluorescence intensity, fold over isotype control: 67.5 fold over isotype
[4]
  median fluorescence intensity, fold over isotype control: 0.75 fold over isotype

B17: antibody 556 (antibody, V domains shown)
VH: B3 VH
VL: B3 VL
[5]
  median fluorescence intensity, fold over isotype control: 625 fold over isotype

B18: antibody 560 (antibody, V domains shown)
VH: B4 VH
VL: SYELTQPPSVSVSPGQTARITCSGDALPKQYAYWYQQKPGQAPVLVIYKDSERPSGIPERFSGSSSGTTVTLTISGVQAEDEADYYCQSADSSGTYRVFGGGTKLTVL
[5]
  median fluorescence intensity, fold over isotype control: 991 fold over isotype

B19: antibody 563 (antibody, V domains shown)
VH: B5 VH
VL: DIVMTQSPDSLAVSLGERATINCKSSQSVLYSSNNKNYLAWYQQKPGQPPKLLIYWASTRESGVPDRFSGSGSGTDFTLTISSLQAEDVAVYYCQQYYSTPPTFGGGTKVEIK
[5]
  median fluorescence intensity, fold over isotype control: 513 fold over isotype

B20: antibody 564 (antibody, V domains shown)
VH: QVHLVESGGGVVQPGKSLRLSCAASGFIFSSFGMHWVRQPPGKGLEWLAVVSYDGSVTKYSDSFEGRFTISRDNSKNTLYLQMDSLRPEDTAVYYCAKGQGTNLLHYWGQGILVTVSS
VL: DVVLSQSPLSLPVTLGQPASISCRSSESLVYTDGDTYLHWFHQRPGQSPRRLIFKVSHRESGVPDRISGSGSGTDFTLKISRVEAEDVGVYYCMQGTHWPFTFGPGTKVDIK
[5]
  median fluorescence intensity, fold over isotype control: 523 fold over isotype
